Binding result and Kd data for 3 molecules are collected here from patent publication US20220259283A1 (AARHUS UNIVERSITET, published 2022).

The labels stand for the following.
B3: hPGRN-6his (human progranulin with a C-terminal 6his-tag) (ligand)
chain: TRCPDGQFCPVACCLDPGGASYSCCRPLLDKWPTTLSRHLGGPCQVDAHCSAGHSCIFTVSGTSSCCPFPEAVACGDGHHCCPRGFHCSADGRSCFQRSGNNSVGAIQCPDSQFECPDFSTCCVMVDGSWGCCPMPQASCCEDRVHCCPHGAFCDLVHTRCITPTGTHPLAKKLPAQRTNRAVALSSSVMCPDARSRCPDGSTCCELPSGKYGCCPMPNATCCSDHLHCCPQDTVCDLIQSKCLSKENATTDLLTKLPAHTVGDVKCDMEVSCPDGYTCCRLQSGAWGCCPFTQAVCCEDHIHCCPAGFTCDTQKGTCEQGPHQVPWMEKAPAHLSLPDPQALKRDVPCDNVSSCPSSDTCCQLTSGEWGCCPIPEAVCCSDHQHCCPQGYTCVAEGQCQRGSEIVAGLEKMPARRASLSHPRDIGCDQHTSCPVGQTCCPSLGGSWACCQLPHAVCCEDRQHCCPAGYTCNVKARSCEKEVVSAQPATFLARSPHVGVKDVECGEGHFCHDNQTCCRDNRQGWACCPYRQGVCCADRRHCCPAGFRCAARGTKCLRREAPRWDAPLRDPALRQLLHHHHHH
notes: Purified protein; also called progranulin-6his; human progranulin-6his

Test [1] has as its target B3. Nature of the test: SPR, RQLL peptide alone injected over immobilized C-terminal his-tagged progranulin on a CM5 chip (control trace of the competition experiment). The procedure: (§1) Purified hPGRN-6his or hSorCS2-6his was immobilized on a CM5 sensor chip using standard amine-coupling. All sensograms were collected in PBS+0.05% Tween20 following injection of purified hPGRN-6his over immobilized hSorCS2-6his or hSortilin-6his and hSorCS2-6his with/without PGRN derived peptide over immobilized hPGRN-6his. Following this experimental setup we estimated the dissociation constant of the hSorCS2:hPGRN interaction to be 15 nM (FIG. 4). […] Inhibition experiments was performed using 100 nM hSorCS2 preincubated with 100 uM PGRN-derived tetra peptide and injected over immobilized hPGRN-6his (FIG. 7).

The target in test [2] is T1, hSorCS2-6his (extracellular domain of human SorCS2 with a C-terminal 6His-tag) (human, UniProt Q96PQ0 51-1076).
T1 construct: Made in CHO-K1 cells and purified from the medium; For crystallisation the protein was deglycosylated with PNGaseF; also called soluble human SorCS2; hSorCS2 extracellular domain
As to the kind of experiment: microscale thermophoresis, 25 nM labelled hSorCS2-6his, partner titrated, triplicates. The procedure:
Equilibrium-binding affinities between hSorCS2 and hPGRN-6his, GrnE and RQLL peptide were assessed by MST. Purified hSorCS2-6his was labelled using the MO-003 monolith blue-NHS labelling kit according to manufactures recommendation. hSorCS2 was applied at a final concentration of 25 nM while the unlabelled binding partner was titrated in 1:1 dilutions (PBS+0.05% Tween20). MST measurements were performed in standard treated capilaiers on a monolith NT.115 instrument. For each binding partner the sigmoid-dose response curve was fitted with GraphPad prism 6 to yield an average dissociation constant.

Test [3] addresses T2, sortilin (human, UniProt Q99523).
T2 construct: soluble, 6his-tagged; Injected at 25-250 nM over immobilized progranulin-6his as a comparison with SorCS2; also called hSortilin-6his; soluble human sortilin
T2 sequence (receptor, soluble form, looked up): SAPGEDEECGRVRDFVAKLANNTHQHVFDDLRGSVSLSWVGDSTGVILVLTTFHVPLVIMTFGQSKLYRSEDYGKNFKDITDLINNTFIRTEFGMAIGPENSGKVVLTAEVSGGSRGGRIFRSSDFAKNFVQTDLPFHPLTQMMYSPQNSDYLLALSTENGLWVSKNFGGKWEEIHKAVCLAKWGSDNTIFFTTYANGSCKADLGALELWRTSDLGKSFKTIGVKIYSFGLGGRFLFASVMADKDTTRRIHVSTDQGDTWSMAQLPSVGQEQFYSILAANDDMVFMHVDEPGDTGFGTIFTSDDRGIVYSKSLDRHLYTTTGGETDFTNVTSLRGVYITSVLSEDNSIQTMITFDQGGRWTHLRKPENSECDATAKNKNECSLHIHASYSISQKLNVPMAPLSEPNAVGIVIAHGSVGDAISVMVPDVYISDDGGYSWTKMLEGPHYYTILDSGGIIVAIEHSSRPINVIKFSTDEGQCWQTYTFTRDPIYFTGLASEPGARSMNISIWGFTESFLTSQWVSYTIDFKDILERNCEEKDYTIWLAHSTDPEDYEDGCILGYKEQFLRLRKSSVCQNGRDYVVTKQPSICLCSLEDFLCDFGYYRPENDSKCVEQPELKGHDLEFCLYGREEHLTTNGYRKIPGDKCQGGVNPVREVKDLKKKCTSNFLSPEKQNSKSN
Nature of the test: SPR, soluble human sortilin injected over immobilized C-terminal his-tagged progranulin on a CM5 chip. The procedure: as §1

Test [4] concerns the target T1, hSorCS2-6his (extracellular domain of …). Nature of the test: SPR, hPGRN-6his injected over hSorCS2-6his immobilized on a CM5 chip. The procedure: as §1
Test [5] shares this target. As to the kind of experiment: SPR, hSorCS2-6his injected over hPGRN-6his immobilized on a CM5 chip. As for the experimental part: as §1

T1 sequence (Q96PQ0 other isoform, or with tags, fused parts or gaps): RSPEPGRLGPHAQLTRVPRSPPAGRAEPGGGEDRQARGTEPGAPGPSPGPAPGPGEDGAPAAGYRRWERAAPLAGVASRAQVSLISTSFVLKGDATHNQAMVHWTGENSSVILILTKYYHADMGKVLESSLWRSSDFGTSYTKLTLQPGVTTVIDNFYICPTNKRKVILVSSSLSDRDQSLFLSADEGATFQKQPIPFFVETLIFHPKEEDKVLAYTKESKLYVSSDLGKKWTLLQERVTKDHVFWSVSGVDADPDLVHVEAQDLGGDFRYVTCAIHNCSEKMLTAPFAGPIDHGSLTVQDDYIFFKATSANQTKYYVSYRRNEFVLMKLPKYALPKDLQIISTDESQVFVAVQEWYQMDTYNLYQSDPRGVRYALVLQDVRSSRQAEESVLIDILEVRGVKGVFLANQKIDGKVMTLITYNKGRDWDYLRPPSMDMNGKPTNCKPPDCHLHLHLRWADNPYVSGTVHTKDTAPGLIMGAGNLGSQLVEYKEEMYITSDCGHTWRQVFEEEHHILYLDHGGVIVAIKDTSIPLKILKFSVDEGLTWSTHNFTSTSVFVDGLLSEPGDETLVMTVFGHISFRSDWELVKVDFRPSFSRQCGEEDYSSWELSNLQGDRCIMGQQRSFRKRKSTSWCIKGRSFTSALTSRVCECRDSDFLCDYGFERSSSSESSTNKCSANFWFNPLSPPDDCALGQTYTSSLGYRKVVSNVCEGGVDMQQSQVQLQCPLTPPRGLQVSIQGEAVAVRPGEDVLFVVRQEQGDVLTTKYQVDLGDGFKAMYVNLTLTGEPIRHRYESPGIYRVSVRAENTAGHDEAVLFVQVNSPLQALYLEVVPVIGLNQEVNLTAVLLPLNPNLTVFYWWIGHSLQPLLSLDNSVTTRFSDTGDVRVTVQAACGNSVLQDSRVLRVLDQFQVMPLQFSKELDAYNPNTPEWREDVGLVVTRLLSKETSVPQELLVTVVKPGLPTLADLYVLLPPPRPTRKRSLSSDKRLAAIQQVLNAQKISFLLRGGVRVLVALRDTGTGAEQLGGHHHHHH

B1: tetrapeptide RQLL (peptide)
peptide: RQLL
notes: also called RQLL peptide; PGRN-derived tetra peptide
On to B1, for which the binding result in test [1] is listed as “no binding (tested: 100 uM)”. In addition, the equilibrium dissociation constant (Kd) in test [2] stood at 1000 nM.

B2: Granulin E (ligand, UniProt P28799 518-593, looked up)
chain: DVECGEGHFCHDNQTCCRDNRQGWACCPYRQGVCCADRRHCCPAGFRCAARGTKCLRREAPRWDAPLRDPALRQLL
notes: domain: Granulin E; also called GrnE
In test [2], B2 yielded a Kd of 2000 nM.

In the case of B3, the binding result in test [3] was “no binding (tested: 250 nM)”. Also, the Kd in test [4] was 15 nM; in test [2] it was 47.8 nM; in test [5], 7.4 nM.
